The chains are these.
B1: Cyclin-dependent kinase 4 inhibitor C (Homo sapiens), P42773 (parent)
chain: MAEPWGNELASAAARGDLEQLTSLLQNNVNVNAQNGFGRTALQVMKLGNPEIARRLLLRGANPDLKDRTGFAVIHDAARAGFLDTLQTLLEFQADVNIEDNEGNLPLHLAAKEGHLRVVEFLVKHTASNVGHRNHKGDTACDLARLYGRNEVVSLMQANGAGGATNLQ
partner: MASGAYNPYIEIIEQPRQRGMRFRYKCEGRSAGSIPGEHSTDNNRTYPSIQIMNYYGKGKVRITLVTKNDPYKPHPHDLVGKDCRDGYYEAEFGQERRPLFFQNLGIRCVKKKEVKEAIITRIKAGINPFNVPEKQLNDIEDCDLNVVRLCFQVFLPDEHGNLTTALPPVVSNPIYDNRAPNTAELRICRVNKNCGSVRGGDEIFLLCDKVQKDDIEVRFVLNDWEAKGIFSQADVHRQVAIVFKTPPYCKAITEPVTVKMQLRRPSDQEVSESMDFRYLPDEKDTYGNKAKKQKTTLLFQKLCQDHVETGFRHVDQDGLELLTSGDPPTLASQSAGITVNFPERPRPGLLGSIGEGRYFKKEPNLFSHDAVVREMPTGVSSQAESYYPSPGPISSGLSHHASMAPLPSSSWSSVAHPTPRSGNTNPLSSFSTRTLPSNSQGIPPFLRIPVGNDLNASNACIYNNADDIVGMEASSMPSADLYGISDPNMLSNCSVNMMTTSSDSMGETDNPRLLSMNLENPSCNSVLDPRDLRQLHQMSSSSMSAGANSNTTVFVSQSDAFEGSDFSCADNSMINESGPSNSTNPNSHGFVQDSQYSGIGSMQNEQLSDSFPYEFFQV
B2: Isoform Long of Autophagy protein 5 (Homo sapiens), Q9H1Y0-1 (parent)
chain: MTDDKDVLRDVWFGRIPTCFTLYQDEITEREAEPYYLLLPRVSYLTLVTDKVKKHFQKVMRQEDISEIWFEYEGTPLKWHYPIGLLFDLLASSSALPWNITVHFKSFPEKDLLHCPSKDAIEAHFMSCMKEADALKHKSQVINEMQKKDHKQLWMGLQNDRFDQFWAINRKLMEYPAEENGFRYIPFRIYQTTTERPFIQKLFRPVAADGQLHTLGDLLKEVCPSAIDPEDGEKKNQVMIHGIEPMLETPLQWLSEHLSYPDNFLHISIIPQPTD
partner: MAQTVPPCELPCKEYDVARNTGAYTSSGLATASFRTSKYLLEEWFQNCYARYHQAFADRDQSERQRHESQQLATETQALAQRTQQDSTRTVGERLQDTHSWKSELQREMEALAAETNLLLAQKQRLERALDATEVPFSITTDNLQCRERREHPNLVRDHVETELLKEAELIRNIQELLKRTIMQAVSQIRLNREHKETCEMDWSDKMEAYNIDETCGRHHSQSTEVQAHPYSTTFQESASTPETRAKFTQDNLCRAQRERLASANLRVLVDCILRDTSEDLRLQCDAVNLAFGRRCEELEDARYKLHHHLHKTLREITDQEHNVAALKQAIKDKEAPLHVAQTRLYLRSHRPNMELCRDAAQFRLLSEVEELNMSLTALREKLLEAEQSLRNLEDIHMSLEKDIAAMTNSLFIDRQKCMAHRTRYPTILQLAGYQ
B3: Zyxin (Homo sapiens), Q15942 (parent)
chain: MAAPRPSPAISVSVSAPAFYAPQKKFGPVVAPKPKVNPFRPGDSEPPPAPGAQRAQMGRVGEIPPPPPEDFPLPPPPLAGDGDDAEGALGGAFPPPPPPIEESFPPAPLEEEIFPSPPPPPEEEGGPEAPIPPPPQPREKVSSIDLEIDSLSSLLDDMTKNDPFKARVSSGYVPPPVATPFSSKSSTKPAAGGTAPLPPWKSPSSSQPLPQVPAPAQSQTQFHVQPQPQPKPQVQLHVQSQTQPVSLANTQPRGPPASSPAPAPKFSPVTPKFTPVASKFSPGAPGGSGSQPNQKLGHPEALSAGTGSPQPPSFTYAQQREKPRVQEKQHPVPPPAQNQNQVRSPGAPGPLTLKEVEELEQLTQQLMQDMEHPQRQNVAVNELCGRCHQPLARAQPAVRALGQLFHIACFTCHQCAQQLQGQQFYSLEGAPYCEGCYTDTLEKCNTCGEPITDRMLRATGKAYHPHCFTCVVCARPLEGTSFIVDQANRPHCVPDYHKQYAPRCSVCSEPIMPEPGRDETVRVVALDKNFHMKCYKCEDCGKPLSIEADDNGCFPLDGHVLCRKCHTARAQT
partner: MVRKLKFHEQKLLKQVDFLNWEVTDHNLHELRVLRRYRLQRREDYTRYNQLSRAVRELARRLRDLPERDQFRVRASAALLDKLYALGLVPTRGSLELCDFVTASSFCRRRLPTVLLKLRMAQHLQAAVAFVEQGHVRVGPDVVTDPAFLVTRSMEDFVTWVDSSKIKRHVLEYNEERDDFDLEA
B4: Meiotic recombination protein DMC1/LIM15 homolog (Homo sapiens), Q14565 (parent)
chain: MKEDQVVAEEPGFQDEEESLFQDIDLLQKHGINVADIKKLKSVGICTIKGIQMTTRRALCNVKGLSEAKVDKIKEAANKLIEPGFLTAFEYSEKRKMVFHITTGSQEFDKLLGGGIESMAITEAFGEFRTGKTQLSHTLCVTAQLPGAGGYPGGKIIFIDTENTFRPDRLRDIADRFNVDHDAVLDNVLYARAYTSEHQMELLDYVAAKFHEEAGIFKLLIIDSIMALFRVDFSGRGELAERQQKLAQMLSRLQKISEEYNVAVFVTNQMTADPGATMTFQADPKKPIGGHILAHASTTRISLRKGRGELRIAKIYDSPEMPENEATFAITAGGIGDAKE
partner: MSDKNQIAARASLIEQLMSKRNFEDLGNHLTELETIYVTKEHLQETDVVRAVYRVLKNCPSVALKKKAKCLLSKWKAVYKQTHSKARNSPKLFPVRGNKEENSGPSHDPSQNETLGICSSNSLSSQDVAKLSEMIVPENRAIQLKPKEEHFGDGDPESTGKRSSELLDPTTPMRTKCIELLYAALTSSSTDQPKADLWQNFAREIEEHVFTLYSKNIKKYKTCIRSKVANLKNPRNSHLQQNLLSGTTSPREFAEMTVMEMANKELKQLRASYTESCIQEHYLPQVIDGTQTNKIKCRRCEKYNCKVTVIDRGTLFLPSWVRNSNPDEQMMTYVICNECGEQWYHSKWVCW

Here are results for five variants from IntAct's records for PubMed 31515488.

Variants of B1 are the subject of one assay. As to conditions: with rel_human REL.
As to T69A, the “effect of a mutation on the interaction” value was “with no effect”.

Variants of B2 are the subject of the next assay. As to conditions: with tekt4_human TEKT4, Q8WW24.
Regarding K58M, the “effect of a mutation on the interaction” value is on record as “with no effect”.

In another assay the parent is B3. As to conditions: with imp3_human IMP3, Q9NV31.
On to R563Q, for which the “effect of a mutation on the interaction” value was “with no effect”.

Consider R489W, for which the “effect of a mutation on the interaction” value was “with no effect”.

The next assay covers variants of B4. As to conditions: with teanc_human TCEANC.
As to I288T, the “effect of a mutation on the interaction” value is “with no effect”.
